Laboratory results from article PMC5454376 (2017).

B1: Human His-Gαi3 WT [human] / Fluorescein-labelled RGS12 GoLoco peptide (residues 1,185–1,221) [modified: 5,6-carboxyfluorescein coupled to the resin-bound peptide after chain elongation; 5,6-carboxyfluorescein coupled to the resin-bound … (parent complex)
chain 1: MGCTLSAEDKAAVERSKMIDRNLREDGEKAAKEVKLLLLGAGESGKSTIVKQMKIIHEDGYSEDECKQYKVVVYSNTIQSIIAIIRAMGRLKIDFGEAARADDARQLFVLAGSAEEGVMTPELAGVIKRLWRDGGVQACFSRSREYQLNDSASYYLNDLDRISQSNYIPTQQDVLRTRVKTTGIVETHFTFKDLYFKMFDVGGQRSERKKWIHCFEGVTAIIFCVALSDYDLVLAEDEEMNRMHESMKLFDSICNNKWFTETSIILFLNKKDLFEEKIKRSPLTICYPEYTGSNTYEEAAAYIQCQFEDLNRRKDTKEIYTHFTCATDTKNVQFVFDAVTDVIIKNNLKECGLY
chain 2: DEAEEFFELISKAQSNRADDQRGLLRKEDLVLPEFLR
B2: Human His-Gαi3 WT [human] / Fluorescein-labelled GIV peptide (residues 1,671–1,701) [modified: 5,6-carboxyfluorescein coupled to the resin-bound peptide after chain elongation; 5,6-carboxyfluorescein coupled to the resin-bound peptide … (parent complex)
chain 1: B1 chain 1
chain 2: KTGSPGSEVVTLQQFLEESNKLTSVQIKSSS

Variants of: B1
Test: fluorescence polarisation

Kd [nM]	Variant
314	chain 1 MGCTLSAEDKAAVERSKMIDRNLREDGEKAAKEVKLLLLGAGESGKSTIVKQMKIIHEDGYSEDECKQYKVVVYSNTIQSIIAIIRAMGRLKIDFGEAARADDARQLFVLAGSAEEGVMTPELAGVIKRLWRDGGVQACFSRSREYQLNDSASYYLNDLDRISQSNYIPTQQDVLRTRVKTTGIVETHFTFKDLYFKMFDVGGQRSERKKWIHCFEGVTAIIFCVALSDYDLVLAEDEEMNRMHESMKLFDSICNEKWFTETSIILFLNKKDLFEEKIKRSPLTICYPEYTGSNTYEEAAAYIQCQFEDLNRRKDTKEIYTHFTCATDTKNVQFVFDAVTDVIIKNNLKECGLY [chain 1 N256E]
152	chain 1 MGCTLSAEDKAAVERSKMIDRNLREDGEKAAKEVALLLLGAGESGKSTIVKQMKIIHEDGYSEDECKQYKVVVYSNTIQSIIAIIRAMGRLKIDFGEAARADDARQLFVLAGSAEEGVMTPELAGVIKRLWRDGGVQACFSRSREYQLNDSASYYLNDLDRISQSNYIPTQQDVLRTRVKTTGIVETHFTFKDLYFKMFDVGGQRSERKKWIHCFEGVTAIIFCVALSDYDLVLAEDEEMNRMHESMKLFDSICNNKWFTETSIILFLNKKDLFEEKIKRSPLTICYPEYTGSNTYEEAAAYIQCQFEDLNRRKDTKEIYTHFTCATDTKNVQFVFDAVTDVIIKNNLKECGLY [chain 1 K35A]
104	chain 1 MGCTLSAEDKAAVERSKMIDRNLREDGEKAAKEVKLLLLGAGESGKSTIVKQMKIIHEDGYSEDECKQYKVVVYSNTIQSIIAIIRAMGRLKIDFGEAARADDARQLFVLAGSAEEGVMTPELAGVIKRLWRDGGVQACFSRSREYQLNDSASYYLNDLDRISQSNYIPTQQDVLRTRVKTTGIVETHFTFKDLYFKMFDVGGQRSERKKWIHCFEGATAIIFCVALSDYDLVLAEDEEMNRMHESMKLFDSICNNKWFTETSIILFLNKKDLFEEKIKRSPLTICYPEYTGSNTYEEAAAYIQCQFEDLNRRKDTKEIYTHFTCATDTKNVQFVFDAVTDVIIKNNLKECGLY [chain 1 V218A]
187	chain 1 MGCTLSAEDKAAVERSKMIDRNLREDGEKAAKEVKLLLLGAGESGKSTIVKQMKIIHEDGYSEDECKQYKVVVYSNTIQSIIAIIRAMGRLKIDFGEAARADDARQLFVLAGSAEEGVMTPELAGVIKRLWRDGGVQACFSRSREYQLNDSASYYLNDLDRISQSNYIPTQQDVLRTRVKTTGIVETHFTFKDLYFKMFDVGGQRSERKKWIHCFEGVTAIIFCVALSDYDLVLAEDEEMNRMHESMKLFDSICNNKWATETSIILFLNKKDLFEEKIKRSPLTICYPEYTGSNTYEEAAAYIQCQFEDLNRRKDTKEIYTHFTCATDTKNVQFVFDAVTDVIIKNNLKECGLY [chain 1 F259A]

Variants of: B2
Test: fluorescence polarisation

Variant	Kd [nM]
chain 1 MGCTLSAEDKAAVERSKMIDRNLREDGEKAAKEVKALLLGAGESGKSTIVKQMKIIHEDGYSEDECKQYKVVVYSNTIQSIIAIIRAMGRLKIDFGEAARADDARQLFVLAGSAEEGVMTPELAGVIKRLWRDGGVQACFSRSREYQLNDSASYYLNDLDRISQSNYIPTQQDVLRTRVKTTGIVETHFTFKDLYFKMFDVGGQRSERKKWIHCFEGVTAIIFCVALSDYDLVLAEDEEMNRMHESMKLFDSICNNKWFTETSIILFLNKKDLFEEKIKRSPLTICYPEYTGSNTYEEAAAYIQCQFEDLNRRKDTKEIYTHFTCATDTKNVQFVFDAVTDVIIKNNLKECGLY [chain 1 L36A]	706
chain 1 MGCTLSAEDKAAVERSKMIDRNLREDGEKAAKEVKLLLLGAGESGKSTIVKQMKIIHEDGYSEDECKQYKVVVYSNTIQSIIAIIRAMGRLKIDFGEAARADDARQLFVLAGSAEEGVMTPELAGVIKRLWRDGGVQACFSRSREYQLNDSASYYLNDLDRISQSNYIPTQQDVLRTRVKTTGIVETHFTFKDLYFKMFDVGGQRSERKKWIHCFEGATAIIFCVALSDYDLVLAEDEEMNRMHESMKLFDSICNNKWFTETSIILFLNKKDLFEEKIKRSPLTICYPEYTGSNTYEEAAAYIQCQFEDLNRRKDTKEIYTHFTCATDTKNVQFVFDAVTDVIIKNNLKECGLY [chain 1 V218A]	362
chain 1 MGCTLSAEDKAAVERSKMIDRNLREDGEKAAKEVKLLLLGAGESGKSTIVKQMKIIHEDGYSEDECKQYKVVVYSNTIQSIIAIIRAMGRLKIDFGEAARADDARQLFVLAGSAEEGVMTPELAGVIKRLWRDGGVQACFSRSREYQLNDSASYYLNDLDRISQSNYIPTQQDVLRTRVKTTGAVETHFTFKDLYFKMFDVGGQRSERKKWIHCFEGVTAIIFCVALSDYDLVLAEDEEMNRMHESMKLFDSICNNKWFTETSIILFLNKKDLFEEKIKRSPLTICYPEYTGSNTYEEAAAYIQCQFEDLNRRKDTKEIYTHFTCATDTKNVQFVFDAVTDVIIKNNLKECGLY [chain 1 I184A]	1910
chain 1 MGCTLSAEDKAAVERSKMIDRNLREDGEKAAKEVKLLLLGAGESGKSTIVKQMKIIHEDGYSEDECKQYKVVVYSNTIQSIIAIIRAMGRLKIDFGEAARADDARQLFVLAGSAEEGVMTPELAGVIKRLWRDGGVQACFSRSREYQLNDSASYYLNDLDRISQSNYIPTQQDVLRTRVKTTGIVETHFTFKDLYFKMFDVGGQRSERKKWIHCFEGVTAIIFCVALSDYDLVLAEDEEMNRMHESMKLFDSICNNKWATETSIILFLNKKDLFEEKIKRSPLTICYPEYTGSNTYEEAAAYIQCQFEDLNRRKDTKEIYTHFTCATDTKNVQFVFDAVTDVIIKNNLKECGLY [chain 1 F259A]	1260
chain 1 MGCTLSAEDKAAVERSKMIDRNLREDGEKAAKEVKLLLAGAGESGKSTIVKQMKIIHEDGYSEDECKQYKVVVYSNTIQSIIAIIRAMGRLKIDFGEAARADDARQLFVLAGSAEEGVMTPELAGVIKRLWRDGGVQACFSRSREYQLNDSASYYLNDLDRISQSNYIPTQQDVLRTRVKTTGIVETHFTFKDLYFKMFDVGGQRSERKKWIHCFEGVTAIIFCVALSDYDLVLAEDEEMNRMHESMKLFDSICNNKWFTETSIILFLNKKDLFEEKIKRSPLTICYPEYTGSNTYEEAAAYIQCQFEDLNRRKDTKEIYTHFTCATDTKNVQFVFDAVTDVIIKNNLKECGLY [chain 1 L39A]	3080

Next, values leading:

Kd [nM]	Variant
478	chain 1 MGCTLSAEDKAAVERSKMIDRNLREDGEKAAKEVKLALLGAGESGKSTIVKQMKIIHEDGYSEDECKQYKVVVYSNTIQSIIAIIRAMGRLKIDFGEAARADDARQLFVLAGSAEEGVMTPELAGVIKRLWRDGGVQACFSRSREYQLNDSASYYLNDLDRISQSNYIPTQQDVLRTRVKTTGIVETHFTFKDLYFKMFDVGGQRSERKKWIHCFEGVTAIIFCVALSDYDLVLAEDEEMNRMHESMKLFDSICNNKWFTETSIILFLNKKDLFEEKIKRSPLTICYPEYTGSNTYEEAAAYIQCQFEDLNRRKDTKEIYTHFTCATDTKNVQFVFDAVTDVIIKNNLKECGLY [chain 1 L37A]
243	chain 1 MGCTLSAEDKAAVERSKMIDRNLREDGEKAAKEVKLLLLGAGESGKSTIVKQMKIIHEDGYSEDECKQYKVVVYSNTIQSIIAIIRAMGRLKIDFGEAARADDARQLFVLAGSAEEGVMTPELAGVIKRLWRDGGVQACFSRSREYQLNDSASYYLNDLDRISQSNYIPTQQDVLRTRVKTTGIVETHFTFKDLYFKMFDVGGQRSERKKWIHCFEGVTAIIFCVALSDYDLVLAEDEEMNRMHESMKLFDAICNNKWFTETSIILFLNKKDLFEEKIKRSPLTICYPEYTGSNTYEEAAAYIQCQFEDLNRRKDTKEIYTHFTCATDTKNVQFVFDAVTDVIIKNNLKECGLY [chain 1 S252A]
870	chain 1 MGCTLSAEDKAAVERSKMIDRNLREDGEKAAKEVKLLLLGAGESGKSTIVKQMKIIHEDGYSEDECKQYKVVVYSNTIQSIIAIIRAMGRLKIDFGEAARADDARQLFVLAGSAEEGVMTPELAGVIKRLWRDGGVQACFSRSREYQLNDSASYYLNDLDRISQSNYIPTQQDVLRTRVKTTGIVETHFTFKDLYFKMFDVGGQRSERKKWIHCFEGVTAIIFCVALSDYDLVLAEDEEMNRMHESMKLFDSICNNAWFTETSIILFLNKKDLFEEKIKRSPLTICYPEYTGSNTYEEAAAYIQCQFEDLNRRKDTKEIYTHFTCATDTKNVQFVFDAVTDVIIKNNLKECGLY [chain 1 K257A]
1820	chain 1 MGCTLSAEDKAAVERSKMIDRNLREDGEKAAKEVKLLLLGAGESGKSTIVKQMKIIHEDGYSEDECKQYKVVVYSNTIQSIIAIIRAMGRLKIDFGEAARADDARQLFVLAGSAEEGVMTPELAGVIKRLWRDGGVQACFSRSREYQLNDSASYYLNDLDRISQSNYIPTQQDVLRTRVKTTGIVETHFTFKDLYFKMFDVGGQRSERKKWIHCFEGVTAIIFCVALSDYDLVLAEDEEMNRMHESMKLFDSICNNKFFTETSIILFLNKKDLFEEKIKRSPLTICYPEYTGSNTYEEAAAYIQCQFEDLNRRKDTKEIYTHFTCATDTKNVQFVFDAVTDVIIKNNLKECGLY [chain 1 W258F]

Variants of: B2
Test: fluorescence polarisation
Remark: another data set of the same source

Kd [nM]	Variant
590	chain 1 MGCTLSAEDKAAVERSKMIDRNLREDGEKAAKEVKLLLLGAGESGKSTIVKQMKIIHEDGYSEDECKQYKVVVYSNTIQSIIAIIRAMGRLKIDFGEAARADDARQLFVLAGSAEEGVMTPELAGVIKRLWRDGGVQACFSRSREYQLNDSASYYLNDLDRISQSNYIPTQQDVLRTRVKTTGIVETHFTFKDLYFKMFDVGGQRSERKKWIHCFEGVTAIIFCVALSDYDLVLAEDEEMNRMHESMKLFDSICNNKWFTETSIILFLNKKDLFEEKIKRSPLTICYPEYTGSNTYEEAAAYIQCQFEDLNRRKDTAEIYTHFTCATDTKNVQFVFDAVTDVIIKNNLKECGLY [chain 1 K317A]
510	chain 1 MGCTLSAEDKAAVERSKMIDRNLREDGEKAAKEVKLLLLGAGESGKSTIVKQMKIIHEDGYSEDECKQYKVVVYSNTIQSIIAIIRAMGRLKIDFGEAARADDARQLFVLAGSAEEGVMTPELAGVIKRLWRDGGVQACFSRSREYQLNDSASYYLNDLDRISQSNYIPTQQDVLRTRVKTTGIVETHFTFKDLYFKMFDVGGQRSERKKWIHCFEGVTAIIFCVALSDYDLVLAEDEEMNRMHESMKLFDSICNNKWFTETSIILFLNKKDLFEEKIKRSPLTICYPEYTGSNTYEEAAAYIQCQFEDLNRRKDTWEIYTHFTCATDTKNVQFVFDAVTDVIIKNNLKECGLY [chain 1 K317W]
800	chain 1 MGCTLSAEDKAAVERSKMIDRNLREDGEKAAKEVKLLLLGAGESGKSTIVKQMKIIHEDGYSEDECKQYKVVVYSNTIQSIIAIIRAMGRLKIDFGEAARADDARQLFVLAGSAEEGVMTPELAGVIKRLWRDGGVQACFSRSREYQLNDSASYYLNDLDRISQSNYIPTQQDVLRTRVKTTGIVETHFTFKDLYFKMFDVGGQRSERKKWIHCFEGVTAIIFCVALSDYDLVLAEDEEMNRMHESMKLFDSICNNKWFTETSIILFLNKKDLFEEKIKRSPLTICYPEYTGSNTYEEAAAYIQCQFEDLNRAKDTKEIYTHFTCATDTKNVQFVFDAVTDVIIKNNLKECGLY [chain 1 R313A]
